The results in this text go back to PMC6057269 (2018).

The chains are these.
B1: GST-tagged ITSN1 SH3d (aa1076-1138), wild type [human] / FCHSD2 SH3-2 (aa568-629), recombinant [human] (parent complex)
chain 1: PEIAQVIASYTATGPEQLTLAPGQLILIRKKNPGGWWEGELQARGKKRQIGWFPANYVKLLSP
chain 2: SVCFVKALYDYEGQTDDELSFPEGAIIRILNKENQDDDGFWEGEFNGRIGVFPSVLVEELSA
B2: GST-tagged FCHSD2 SH3-2 (aa568-629), wild type [human] / ITSN1 SH3d (aa1076-1138), recombinant [human] (parent complex)
chain 1: B1 chain 2
chain 2: B1 chain 1

The variants in the first assay derive from B1. Kind of assay: GST pull-down, Coomassie stained gel, band quantification; n = 3 experiments, mean ± SD; parent: 1; read off a plot.
As to chain 1 R44E, the ratio to parent was ~0.08.

With chain 1 R44A, the ratio to parent is ~0.08. On the same count and under the same terms, the same measure for chain 1 R48E: ~0.4; for chain 1 T11A: ~1.1; for chain 1 I3K: ~0.08. Regarding chain 1 I3S, the ratio to parent is ~0.08.

A further assay covers variants of B2. The assay is described as above.
Consider chain 1 D17K, for which the ratio to parent was ~0.9. As to chain 1 D16A, the ratio to parent was ~1.1.

As to chain 1 Y9S, the ratio to parent is ~0.45. As for chain 1 Y9S, chain 1 F40S, the ratio to parent was ~0.15. The same measure, in the same setting: the same measure for chain 1 F40S: ~0.3; for chain 1 V55K, chain 1 L56K: ~0.1; for chain 1 V55S: ~0.8. Regarding chain 1 N46A, the ratio to parent was ~1.2.
